Assay results from article PMC7706287, “Targeting the myeloid checkpoint receptor SIRPα potentiates innate and adaptive immune responses to promote anti-tumor activity” (Journal of Hematology & Oncology, 2020).

Target: T1, Ig-V domain of human SIRPα V1 (crystallography construct) (human, UniProt P78324-1)
T1 construct: Signal regulatory protein α, human, allele v1, IgV domain as crystallised; also called IgV domain of SIRPα v1
Assay: crystal structure; Fab-SIRPα V1 complex at 11.3 mg/mL in 10 mM Tris pH 7.4, 50 mM NaCl; sitting drop, 0.1 M sodium acetate pH 4.0, 0.2 M ammonium sulfate, 18% PEG 4000; 2.27 Angstroms
Conditions: both partners purified

T1 sequence (P78324 33-147): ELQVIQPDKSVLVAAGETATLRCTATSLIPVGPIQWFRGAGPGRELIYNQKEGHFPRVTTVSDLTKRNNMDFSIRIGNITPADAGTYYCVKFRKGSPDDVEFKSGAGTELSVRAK

B1: hAB21 anti-SIRPα Fab (Fab, V domains shown)
VH: DVQLVESGGGVVRPGESLRLSCEASGFTFSSNAMSWVRQAPGKGLEWVAGISSGSDTYYGDSVKGRLTISRDNSKNILYLQMNSLTAEDTAVYYCARETWNHLFDYWGQGTLVTVSS
VL: ELTQPPSVSVSPGQTARITCSGGSYSSYYYAWYQQKPGQAPVTLIYSDDKRPSNIPERFSGSSSGTTVTLTITGVQAEDEADYYCGGYDQSSYTNPFGGGTKLTVL
notes: Fab heavy chain; Fab light chain (humanized lambda); also called hAB21 Fab; Fab version of the antibody
binding result: binds
